T1: human calcitonin receptor (human, UniProt P30988 25-474)
T1 construct: whole, on cells; also called hCT-R; hCTR
T1 sequence (looked up): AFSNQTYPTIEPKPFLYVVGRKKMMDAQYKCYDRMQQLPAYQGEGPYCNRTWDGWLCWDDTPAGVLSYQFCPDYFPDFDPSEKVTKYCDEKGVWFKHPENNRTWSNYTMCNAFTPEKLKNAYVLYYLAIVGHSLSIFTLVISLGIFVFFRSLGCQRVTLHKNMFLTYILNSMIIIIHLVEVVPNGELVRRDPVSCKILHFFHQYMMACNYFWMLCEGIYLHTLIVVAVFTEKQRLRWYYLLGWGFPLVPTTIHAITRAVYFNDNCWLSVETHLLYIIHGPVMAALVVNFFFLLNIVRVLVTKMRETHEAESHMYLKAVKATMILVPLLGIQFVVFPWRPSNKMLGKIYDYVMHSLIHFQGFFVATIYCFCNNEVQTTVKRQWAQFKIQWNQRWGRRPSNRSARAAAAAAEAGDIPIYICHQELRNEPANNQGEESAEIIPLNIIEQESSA

B1: [N-terminal(C20 diacid-gGlu), des1, 4Q, 9V, 15Q, 16R, 19R, 21Q, 23Y, 27Q, 30S, 31Q, 32T, 33Y]mimylin (peptide)
peptide: {C20 diacid-γGlu}-ASQLSTAVLGRLSQRLHRLQTYPRTQTGSQTY-NH2
SMILES: CC(C)C[C@H](NC(=O)[C@H](CCCNC(=N)N)NC(=O)CNC(=O)[C@H](CC(C)C)NC(=O)[C@@H](NC(=O)[C@H](C)NC(=O)[C@@H](NC(=O)[C@H](CO)NC(=O)[C@H](CC(C)C)NC(=O)[C@H](CCC(N)=O)NC(=O)[C@H](CO)NC(=O)[C@H](C)NC(=O)CC[C@H](NC(=O)CCCCCCCCCCCCCCCCCCC(=O)O)C(=O)O)[C@@H](C)O)C(C)C)C(=O)N[C@@H](CO)C(=O)N[C@@H](CCC(N)=O)C(=O)N[C@@H](CCCNC(=N)N)C(=O)N[C@@H](CC(C)C)C(=O)N[C@@H](Cc1c[nH]cn1)C(=O)N[C@@H](CCCNC(=N)N)C(=O)N[C@@H](CC(C)C)C(=O)N[C@@H](CCC(N)=O)C(=O)N[C@H](C(=O)N[C@@H](Cc1ccc(O)cc1)C(=O)N1CCC[C@H]1C(=O)N[C@@H](CCCNC(=N)N)C(=O)N[C@H](C(=O)N[C@@H](CCC(N)=O)C(=O)N[C@H](C(=O)NCC(=O)N[C@@H](CO)C(=O)N[C@@H](CCC(N)=O)C(=O)N[C@H](C(=O)N[C@@H](Cc1ccc(O)cc1)C(N)=O)[C@@H](C)O)[C@@H](C)O)[C@@H](C)O)[C@@H](C)O
notes: also called Ex. #132
B2: [N-terminal(C20 diacid-gGlu), des1, 2L, 4Q, 8L, 9V, 15Q, 16R, 19R, 21Q, 23Y, 27Q, 30S, 31Q, 32T, 33Y]mimylin (peptide)
peptide: {C20 diacid-γGlu}-LSQLSTLVLGRLSQRLHRLQTYPRTQTGSQTY-NH2
SMILES: CC(C)C[C@H](NC(=O)CC[C@H](NC(=O)CCCCCCCCCCCCCCCCCCC(=O)O)C(=O)O)C(=O)N[C@@H](CO)C(=O)N[C@@H](CCC(N)=O)C(=O)N[C@@H](CC(C)C)C(=O)N[C@@H](CO)C(=O)N[C@H](C(=O)N[C@@H](CC(C)C)C(=O)N[C@H](C(=O)N[C@@H](CC(C)C)C(=O)NCC(=O)N[C@@H](CCCNC(=N)N)C(=O)N[C@@H](CC(C)C)C(=O)N[C@@H](CO)C(=O)N[C@@H](CCC(N)=O)C(=O)N[C@@H](CCCNC(=N)N)C(=O)N[C@@H](CC(C)C)C(=O)N[C@@H](Cc1c[nH]cn1)C(=O)N[C@@H](CCCNC(=N)N)C(=O)N[C@@H](CC(C)C)C(=O)N[C@@H](CCC(N)=O)C(=O)N[C@H](C(=O)N[C@@H](Cc1ccc(O)cc1)C(=O)N1CCC[C@H]1C(=O)N[C@@H](CCCNC(=N)N)C(=O)N[C@H](C(=O)N[C@@H](CCC(N)=O)C(=O)N[C@H](C(=O)NCC(=O)N[C@@H](CO)C(=O)N[C@@H](CCC(N)=O)C(=O)N[C@H](C(=O)N[C@@H](Cc1ccc(O)cc1)C(N)=O)[C@@H](C)O)[C@@H](C)O)[C@@H](C)O)[C@@H](C)O)C(C)C)[C@@H](C)O
notes: also called Ex. #133
B3: [N-terminal(C20 diacid-gGlu), 4Q, 9V, 15Q, 21Q, 23Y, 27G, 30S, 31G, 32T, 33Y]mimylin (peptide)
peptide: {C20 diacid-γGlu}-EASQLSTAVLGRLSQELHELQTYPRTGTGSGTY-NH2
SMILES: CC(C)C[C@H](NC(=O)[C@H](CCCNC(=N)N)NC(=O)CNC(=O)[C@H](CC(C)C)NC(=O)[C@@H](NC(=O)[C@H](C)NC(=O)[C@@H](NC(=O)[C@H](CO)NC(=O)[C@H](CC(C)C)NC(=O)[C@H](CCC(N)=O)NC(=O)[C@H](CO)NC(=O)[C@H](C)NC(=O)[C@H](CCC(=O)O)NC(=O)CC[C@H](NC(=O)CCCCCCCCCCCCCCCCCCC(=O)O)C(=O)O)[C@@H](C)O)C(C)C)C(=O)N[C@@H](CO)C(=O)N[C@@H](CCC(N)=O)C(=O)N[C@@H](CCC(=O)O)C(=O)N[C@@H](CC(C)C)C(=O)N[C@@H](Cc1c[nH]cn1)C(=O)N[C@@H](CCC(=O)O)C(=O)N[C@@H](CC(C)C)C(=O)N[C@@H](CCC(N)=O)C(=O)N[C@H](C(=O)N[C@@H](Cc1ccc(O)cc1)C(=O)N1CCC[C@H]1C(=O)N[C@@H](CCCNC(=N)N)C(=O)N[C@H](C(=O)NCC(=O)N[C@H](C(=O)NCC(=O)N[C@@H](CO)C(=O)NCC(=O)N[C@H](C(=O)N[C@@H](Cc1ccc(O)cc1)C(N)=O)[C@@H](C)O)[C@@H](C)O)[C@@H](C)O)[C@@H](C)O
B4: [N-terminal(C20 diacid-gGlu), 2L, 4G, 8L, 9V, 15Q, 21Q, 23Y, 27G, 30S, 31G, 32T, 33Y]mimylin (peptide)
peptide: {C20 diacid-γGlu}-ELSGLSTLVLGRLSQELHELQTYPRTGTGSGTY-NH2
SMILES: CC(C)C[C@H](NC(=O)CNC(=O)[C@H](CO)NC(=O)[C@H](CC(C)C)NC(=O)[C@H](CCC(=O)O)NC(=O)CC[C@H](NC(=O)CCCCCCCCCCCCCCCCCCC(=O)O)C(=O)O)C(=O)N[C@@H](CO)C(=O)N[C@H](C(=O)N[C@@H](CC(C)C)C(=O)N[C@H](C(=O)N[C@@H](CC(C)C)C(=O)NCC(=O)N[C@@H](CCCNC(=N)N)C(=O)N[C@@H](CC(C)C)C(=O)N[C@@H](CO)C(=O)N[C@@H](CCC(N)=O)C(=O)N[C@@H](CCC(=O)O)C(=O)N[C@@H](CC(C)C)C(=O)N[C@@H](Cc1c[nH]cn1)C(=O)N[C@@H](CCC(=O)O)C(=O)N[C@@H](CC(C)C)C(=O)N[C@@H](CCC(N)=O)C(=O)N[C@H](C(=O)N[C@@H](Cc1ccc(O)cc1)C(=O)N1CCC[C@H]1C(=O)N[C@@H](CCCNC(=N)N)C(=O)N[C@H](C(=O)NCC(=O)N[C@H](C(=O)NCC(=O)N[C@@H](CO)C(=O)NCC(=O)N[C@H](C(=O)N[C@@H](Cc1ccc(O)cc1)C(N)=O)[C@@H](C)O)[C@@H](C)O)[C@@H](C)O)[C@@H](C)O)C(C)C)[C@@H](C)O
B5: [N-terminal(C20 diacid-gGlu), des1, 4G, 15T, 21E, 23Y, 30S, 31G, 32T, 33Y]mimylin (peptide)
peptide: {C20 diacid-γGlu}-ASGLSTAALGRLSTELHELETYPRTETGSGTY-NH2
SMILES: CC(C)C[C@H](NC(=O)CNC(=O)[C@H](CO)NC(=O)[C@H](C)NC(=O)CC[C@H](NC(=O)CCCCCCCCCCCCCCCCCCC(=O)O)C(=O)O)C(=O)N[C@@H](CO)C(=O)N[C@H](C(=O)N[C@@H](C)C(=O)N[C@@H](C)C(=O)N[C@@H](CC(C)C)C(=O)NCC(=O)N[C@@H](CCCNC(=N)N)C(=O)N[C@@H](CC(C)C)C(=O)N[C@@H](CO)C(=O)N[C@H](C(=O)N[C@@H](CCC(=O)O)C(=O)N[C@@H](CC(C)C)C(=O)N[C@@H](Cc1c[nH]cn1)C(=O)N[C@@H](CCC(=O)O)C(=O)N[C@@H](CC(C)C)C(=O)N[C@@H](CCC(=O)O)C(=O)N[C@H](C(=O)N[C@@H](Cc1ccc(O)cc1)C(=O)N1CCC[C@H]1C(=O)N[C@@H](CCCNC(=N)N)C(=O)N[C@H](C(=O)N[C@@H](CCC(=O)O)C(=O)N[C@H](C(=O)NCC(=O)N[C@@H](CO)C(=O)NCC(=O)N[C@H](C(=O)N[C@@H](Cc1ccc(O)cc1)C(N)=O)[C@@H](C)O)[C@@H](C)O)[C@@H](C)O)[C@@H](C)O)[C@@H](C)O)[C@@H](C)O
B6: [des1, 4G, 15Q, 21Q, 23Y, 30S, 31K(C20 diacid-gGlu), 32T, 33Y]mimylin (peptide)
peptide: ASGLSTAALGRLSQELHELQTYPRTETGSK([γGlu-C20 diacid])TY-NH2
modifications: N-terminus assumed
SMILES: CC(C)C[C@H](NC(=O)CNC(=O)[C@H](CO)NC(=O)[C@H](C)N)C(=O)N[C@@H](CO)C(=O)N[C@H](C(=O)N[C@@H](C)C(=O)N[C@@H](C)C(=O)N[C@@H](CC(C)C)C(=O)NCC(=O)N[C@@H](CCCNC(=N)N)C(=O)N[C@@H](CC(C)C)C(=O)N[C@@H](CO)C(=O)N[C@@H](CCC(N)=O)C(=O)N[C@@H](CCC(=O)O)C(=O)N[C@@H](CC(C)C)C(=O)N[C@@H](Cc1c[nH]cn1)C(=O)N[C@@H](CCC(=O)O)C(=O)N[C@@H](CC(C)C)C(=O)N[C@@H](CCC(N)=O)C(=O)N[C@H](C(=O)N[C@@H](Cc1ccc(O)cc1)C(=O)N1CCC[C@H]1C(=O)N[C@@H](CCCNC(=N)N)C(=O)N[C@H](C(=O)N[C@@H](CCC(=O)O)C(=O)N[C@H](C(=O)NCC(=O)N[C@@H](CO)C(=O)N[C@@H](CCCCNC(=O)CC[C@H](NC(=O)CCCCCCCCCCCCCCCCCCC(=O)O)C(=O)O)C(=O)N[C@H](C(=O)N[C@@H](Cc1ccc(O)cc1)C(N)=O)[C@@H](C)O)[C@@H](C)O)[C@@H](C)O)[C@@H](C)O)[C@@H](C)O
B7: [N-terminal(C20 diacid-gGlu), des1, 9V, 15Q, 21Q, 23Y, 30S, 31G, 32T, 33Y]mimylin (peptide)
peptide: {C20 diacid-γGlu}-ASELSTAVLGRLSQELHELQTYPRTETGSGTY-NH2
SMILES: CC(C)C[C@H](NC(=O)[C@H](CCCNC(=N)N)NC(=O)CNC(=O)[C@H](CC(C)C)NC(=O)[C@@H](NC(=O)[C@H](C)NC(=O)[C@@H](NC(=O)[C@H](CO)NC(=O)[C@H](CC(C)C)NC(=O)[C@H](CCC(=O)O)NC(=O)[C@H](CO)NC(=O)[C@H](C)NC(=O)CC[C@H](NC(=O)CCCCCCCCCCCCCCCCCCC(=O)O)C(=O)O)[C@@H](C)O)C(C)C)C(=O)N[C@@H](CO)C(=O)N[C@@H](CCC(N)=O)C(=O)N[C@@H](CCC(=O)O)C(=O)N[C@@H](CC(C)C)C(=O)N[C@@H](Cc1c[nH]cn1)C(=O)N[C@@H](CCC(=O)O)C(=O)N[C@@H](CC(C)C)C(=O)N[C@@H](CCC(N)=O)C(=O)N[C@H](C(=O)N[C@@H](Cc1ccc(O)cc1)C(=O)N1CCC[C@H]1C(=O)N[C@@H](CCCNC(=N)N)C(=O)N[C@H](C(=O)N[C@@H](CCC(=O)O)C(=O)N[C@H](C(=O)NCC(=O)N[C@@H](CO)C(=O)NCC(=O)N[C@H](C(=O)N[C@@H](Cc1ccc(O)cc1)C(N)=O)[C@@H](C)O)[C@@H](C)O)[C@@H](C)O)[C@@H](C)O

From patent US20160272683A1 (Novo Nordisk, published 2016) come the findings set out here.

Numbered stars: 1 amine (or outer) side, 2 acyl side, 3 side chain; on linkers, the order of the positions; unused ones are H or OH. Side chains are listed from the residue outwards. Ends that are not written are not given here. * marks the point of attachment. C20 diacid = O=C(O)CCCCCCCCCCCCCCCCCCC(=O)*; C18 diacid = O=C(O)CCCCCCCCCCCCCCCCC(=O)*; γGlu = O=C(O)[C@H](CCC(=O)[*:2])N[*:1]

The target of the assay is T1, human calcitonin receptor. Nature of the assay: whole-cell competition vs 125I-human calcitonin (Assay VIIa). The essentials: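 BHK tk'ts 13 cells stably co-expressing human calcitonin receptor and a CRE-luciferase reporter, seeded overnight at 37 °C. Bound tracer counted by scintillation after cold HBSS washes and NaOH/SDS lysis; IC₅₀ from one-site competition fit taken as receptor affinity.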
As a reminder, the IC50 is the concentration that inhibits the measured activity by half. With {C18 diacid}-EASELSTAALGRLSAELHELATLPRTETGPESP-OH [[N-terminal(C18 diacid), C-terminal(-)]mimylin], the IC50 worked out at 42.4 nM.

In the case of B1, the 50% inhibitory concentration (IC50) came out at 1.55 nM.

B2: the IC50 turned out to be 9.66 nM.

Regarding EASELSTAALGRLSAELHELATLPRTETGPESP-OH (also called Ex. #135) [[C-terminal(-)]mimylin], the IC50 amounted to 630 nM.

Regarding B3, the IC50 worked out at 0.796 nM.

Consider B4, for which the half-maximal inhibitory concentration (IC50) was determined as 3.62 nM.

B5: the half-maximal inhibitory concentration (IC50) is 0.547 nM.

Regarding B6, the IC50 was 1.27 nM.

Consider B7, for which the IC50 came out at 0.326 nM.

Consider LSGLSTAVLGRLSQELHELQTYPRTETGSQTY-NH2 (backbone without side chain) [[des1, 2L, 4G, 9V, 15Q, 21Q, 23Y, 30S, 31Q, 32T, 33Y]mimylin], for which the IC50 came to 0.959 nM.
